Measurements: the DeepSol protein solubility set

Assay: soluble on expression in E. coli; label from the status in PepcDB or PDB records

Row | Sequence | soluble on expression in E. coli
1 | TLKEMKYKRNQEEIETYYEYTLKIEAINNEMRKFRHDYVNILTTLSEYIREDDMIGLRAYFNKNIVPMKDNLQMNAIKLNGIENLKVREIKGLITAKILRAQEMNIPISIEIPDEVSSINLNMIDLSRSIGIILDNAIEASTEIDDPIIRVAFIESENSVTFIVMNKCADDIPRIHELFQESFSTKGEGRGLGLSTLKEIADNADNVLLDTIIENGFFIQKVEIINN | not soluble
2 | TPGKSDEAKDVFQVQDIPPVTAIGQSGLRLNLIGKNDRILNVNSPVLYENFMVGQVESAHFDPSDQSVHYTIFIQSPNDKLIHSASRFWLESGINIETTGSGIKLNSAPLPALLSGAISFDSPKTKNSKNVKSEDSFTLYDSRSEVANLPDDRSLYYTAFFKQSVRGLTVGSPVEYKGLNVGVVSDVPYFDRNDSLHLFENGWIPVRIRIEPSRLEINADEQSKEHWKQQFQTALNKGLTATISSNNLLTGSKMIELNDQPSASPKLRPHTVYAGDTVIATQGGGLDDLQVKLADLLDKFDKLPLDKTVAELNGSLAELKSTLKSANAALSSIDKLVGKPQTQNIPNELNQTLKELRTTLQGVSPQSPIYGDVQNTLQSLDKTLKDVQPVINTLKEKPNALIFNSSSKDPIPKGSR | not soluble
3 | TQKPSLYRVLILNDDYTPMEFVVYVLERFFNKSREDATRIMLHVHQNGVGVCGVYTYEVAETKVAQVIDSARRHQHPLQCTMEKD | soluble
4 | TRGHGLFRITLVERDGPVGAGIAYATREAEHLLNTRVHNMSAFPDRPDHFRQWLAAEPEGRFSTGDSFVPRGLYRRYLEEILAPWRAGAQLTCVGGECLRIEEVGRGVIAHFSDGSVRLADVAILATGHPRPDPAEDRLLQDPWRAADVPPDARVVLLGSGLTMIDKVLTLLANGHRGEI | not soluble
5 | TSDTPALLYIHGLNSSAQSKKACQLIALMKSLGLADRLQVPELHHHPRQAMLQLESAIGALGRPLLVGSSLGGYYATHLAQRHGLKAVLINPAVNPHQLFDGFLGMQQNLYTGEQWQLTEDHIKALAELEVPAPQDPQQFQVWLQTGDETLDYRRAEKFYRACALRIQAGGDHSFQGFAERLPALLSFAGFAPDLLQ | not soluble
6 | TSMIIHRDLEVAIRQDNIIPYFQPIVNAKSGEIIGFEALARWPHPTLGIISPLIFIPLAEQGKLIVELGESILNQSCDFIGKLNTKRHSQGLPPLTVHVNLSAQHFYHSRLISFLQSMIEEHNISAGHLVLEITESMLMGGETESIHCINEIKQLGVQLALDDFGTGYASFSSVCNFPLDIVKLDKSYVDEIETNDRAKTLVRNIANMSQELGLTIVAEGVETASQVRKLKVWNIDELQGFYFYKPMTREDAFAQFSGLPHC | not soluble
7 | TTAIASDRLKKRFDRWDFDGNGALERADFEKEAQHIAEAFGKDAGAAEVQTLKNAFGGLFDYLAKEAGVGSDGSLTEEQFIRVTENLIFEQGEASFNRVLGPVVKGIVGMCDKNADGQINADEFAAWLTALGMSKAEAAEAFNQVDTNGNGELSLDELLTAVRDFHFGRLDVELLG | soluble
8 | TVSQLRSRITRFALAGRGMRETVTWSFISEKQALAFGGGQAQLKLVNPISADMSVMRPSLLPGLLVAAQRNADRGFPDFALFEVSNIYEDDTPDKQHRVAGGIRRGTEQFGGAGRFWNGNARAVDVFDAKADALAVLEACGLESGKVQIEVGAPDWYHPGRSGVIKLGSKIILGFFGVFHPATLEKLDISGPLCGFEIFL | not soluble
9 | TVVNDPSCESVVTTPQHSLRDANSPAGLLSIAEETLAEFLSKATGTAVDWVQMPGMKPGPDSVGIFAISQRCNGVAARACGLVSLEPMKIAEILKDRPSWFRDCRSLEVFTMFPAGNGGTIELVYMQTYAPTTLAPARDFWTLRYTTSLDNGSFVVCERSLSGSGAGPNAASASQFVRAEMLSSGYLIRPCDGGGSIIHIVDHLNLEAWSVPDVLRPLYESSKVVAQKMTISALRYIRQLAQESNGEVVYGLGRQPAVLRTFSQRLSRGFNDAVNGFGDDGWSTMHCDGAEDIIVAINSTKHLTNISNSV | soluble
10 | VAIDTVITDMDGTLLVKKGDQIHPLNKEVLINWQADGKKLFLATGRLDLAILPFIHELNIKTPVISCNGGLVRDFTTGEILYKSNIELDLVHTVLETLEPLGVNYHIYTTERIIGPTNTGKIAFFNELNKTLSENEQVPITLTTDPFSVLREGEFPLKVLVIESDLEKRAEIKAALQGLPLSVLASASNLIDIMNEGIDKAKGLTYLADNGYINLNSTIAFGDNENDVGMIELAEIGVAMENGIPLALEKADKIAKHHDIGGLGLFMQEEIL | not soluble
11 | VAIDYTRRPSSPAAPQGGVSLSKVTLSKAAPSVSLTKSGERQGAMRVNLNWSTGATPQPKKTGFFAKLAAAAGGNNGIDLDLGCLYELADGSKGVVQALGNSFGSLQAPPFIKLDADDRTGTVTGGENLHINLDRPEMFKRILIFAMIYDGAPNWAAVDGVVTLYPTSGPEVEVRLDTSNSSARICAIAMLQNTGQGITVTREVKYIEGSQADLDKTYSWGMKWAAGRK | not soluble
12 | VALLGLILPYFVSRWWARTQSYTKKGIHNVTASNFVSNLVNYKPSEIVTTDLILHWLSFAHEFKQFFPDLQPTDFEKLLQDHINRRDSGKLNNAKFRIVAKCHSLLHGLLDIACGFRNLDIALGAINTFKCIVQAVPLTPNCQILQLPNVDKEHFITKTGDIHTLGKLFTLEDAKIGEVLGIKDQAKLNETLRVASHIPNLKIIKADFLVPGENQVTPSSTPYISLKVLVRSAKQPLIPTSLIPEENLTEPQDFESQRDPFAMMSKQPLVPYSFAPFFPTKRRGSWCCLVSSQKDGKILQTPIII | not soluble
13 | VDLSDEEKDSIYMFASLVEKMKSRPLNEILEDSKLQNLAQRVFASKARLNYALNDKAQKYNTLIEMNGKISEIMNIYDRLLEQQLQSINLS | soluble
14 | VDNARIDLRSKYYVKPKADHPWLTRRTQSHQQVKPPKLPKKKPDPDKKD | soluble
15 | VDWTDAERSAIVGLWGKISVDEIGPQALARLLIVSPWTQRHFSTFGNLSTPAAIMGNPAVAKHGKTVMHGLDRAVQNLDDIKNTYATLSVMHSEKLHVDPDNFRLLADCITVCVAAKLGPAVFSADTQEAFQKFLAVVVSALGRQYH | soluble
16 | VDYTLRRRSLLAEVYSGRTGVSEVCDANPYLLRAAKFHGKPSRVICPICRKEQLTLVSWVFGEHLGAVSGSARTAEELILLATRFSEFAVHVVEVCRTCSWNHLVKSYVLGAARPARPPRGSGGTRTARNGARTASE | not soluble
17 | VEADSNIGYNATFGYQKPMGGAGAYWGMEFGLGSRGFKADEMKCIAHNIQYSPFTFGWKIGVADNLSIDPHLGVFASYDYTSKMKESGESISWGDFADYLEVDYNHFDAGMNIGVGLWYDRFNLDFTYQRGFIDVFSDLDGIKTSNFMIRLGIAF | not soluble
18 | VEGRFQLVAPYEPQGDQPQAIAKLVDGLRRGVKHQTLLGATGTGKTFTISNVIAQVNKPTLVIAHNKTLAGQLYSELKEFFPHNAVEYFVSYYDYYQPEAYVPQTDTYIEKDAKINDEIDKLRHSATSALFERRDVIIVASVSCIYGLGSPEEYRELVVSLRVGMEIERNALLRRLVDIQYDRNDIDFRGTFRVRGDVVEIFPASRDEHCIRVEFFGDEIERIRAEVDALTGKVLGEREHVAIFPASHFVTREEKMRLAIQNIEQELEERLAELRAQGKLLEAQRLEQRTRYDLEMMREMGFCSGIENYSRHLALRPPGSTPYTLLDYFPDDFLIIVDESHVTLPQLRGMYNGDRARKQVLVDHGFRLPSALDNRPLTFEEFEQKINQIIYVSATPGPYELEHSPGVVEQIIRPTGLLDPTIDVRPTKGQIDDLIGEIRERVERNERTLVTTLTKKMAEDLTDYLKEAGIKVAYLHSEIKTLERIEIIRDLRLGKYDVLVGINLLREGLDIPEVSLVAILDADKEGFLRSERSLIQTIGRAARNANGHVIMYADTITKSMEIAIQETKRRRAIQEEYNRKHGIVPRTVKKEIRDVIRATYAAEETEMYEAKPAAAMTKQEREELIRTLEAEMKEAAKALDFERAAQLRDIIFELKAEG | soluble
19 | VFDRPLFALDFSKCTEKIIQTTELFKELVKEAILLHVVDYGKESEVEENIQKATQKLKEIAEKLDFPSEVVVHSGDASKEILMTAPSVGATLIVIGKRGRNILQLLMGSTAEIVIRNSVLPVLIVP | not soluble
20 | VGFAPELYCGLENCYDVLEVNREEFDKQKLAKAYRALARKHHPDRVKNKEEKLLAEERFRVIATAYETLKDDEAKTNYDYYLDHPDQRFYNYYQYYRLRAAPKVDL | soluble
21 | VGQMVAVNGYKISVFVKGQGSQTLVFLSGAGTASPILDFKDVYDGFSKEYKIVVVERADYGYSEDTSKSRDVSVILSETRQSLAKSQVSGPYIILSHSMASLETLLWQENYPSEVKAVVCLDWAFPESYFQLKRHPQMLRLARWESQLGLLRLLPRQLYMPNENLSDSDRRLYQEIAYRQLLSQAMLNESLCAKENDKKVNSTSIKSQMPVLLMVSNGKGTGFGQEQWRHYATSFAKGQKNMEVTYYDSPHYFYHYQTKEMIRSIEEFVQETTD | not soluble
22 | VKEIIDGFLKFQREAFPKREALFKQLATQQSPRTLFISCSDSRLVPELVTQREPGDLFVIRNAGNIVPSYGPEPGGVSASVEYAVAALRVSDIVICGHSNCGAMTAIASCQCMDHMPAVSHWLRYADSARVVNEARPHSDLPSKAAAMVRENVIAQLANLQTHPSVRLALEEGRIALHGWVYDIESGSIAAFDGATRQFVPLAANPRVCAIPLRQPTAA | soluble
23 | VKLLTDLFKAGLRTPSTDQIQKISMELSFYGKIESKNVFYWFQNHKARERQKCRKISTVKFDHRQDTDLSKPRRDNVRRHQLPAKG | not soluble
24 | VLHAIEPLNLGPKPIFVHEQGLLVEWIDGITLTKDGIELEELLPIAATIHQYHSSSIPVVPFSYISRIDHYWLELEGKYVGSEFETLYKQWRSEPSVEQIPLALCHFDLGCYNLVRGDQGVKVIDWEYASLADPRLDL | not soluble
25 | VLLKEGARGSAPSAPPPLAVPAFFPLEPLTVNLQSDDGVQHYLRVGLSLKLTDPKAQEYLTQHMPELRSRILLALSNKHPEQLATLEGKRALADELKTLIEQPTQPGNQSARVDDVLFTEFVVQ | not soluble
26 | VLTEMRADARVAILEELSEAELNFTLAKLDNLSLIEWAESLPDDIFSLALQLISRDELDLYDDAKQYDDDEVGHWADRKIATLPFNVSVGRAKKLLKTNLFESHQYMHLINRAHKFHGIVQYTDILTADDSVKINTLKLEDCLVLNVHQPLSESIEAIEHSAVPSVAIVDDENTLIGQLDWQFAINTQREIYETRLMAGTGMDEGDDLFSPIIKSSKKRGV | not soluble
27 | VMVFISSSLNSFRSEKRYSRSLTIAEFKCKLELVVGSPASCMELELYGADDKFYSKLDQEDALLGSYPVDDGCSIHVIDHSG | soluble
28 | VNEIVVNPNATLDWQLALRQAAGKTDLARDMLQMLLDFLPEVRNKVEEQLVGENPEGLVDLIHKLHGSCGYSGVPRMKNLCQLIEQQLRSGTKEEDLEPELLELLDEMDNVAREASKIL | not soluble
29 | VPTDCTENWVVVYLSGPLFFMSSERLKQTLLQLETKSGVVFSMRGVPSIDSTALDILEEFCLAAEGRGQQVQFAALQPEVEKMIRTIQGNQEKEYHFSVAEFLQTVHVA | not soluble
